From patent publication US20220023385A1

Tests used:
[1] = molecular target: FGFRs expressed on NIH3T3 cells; assay: equilibrium titration of His-tagged FGF1 on FGFR-expressing NIH3T3 cells at 4 °C, flow cytometry with anti-His antibody
[2] = molecular target: FGFRs expressed on NIH3T3 cells; assay: cell-based or functional assay

| Substance | Kd [1] | inhibition of ERK phosphorylation induced by 1 nM wild type FGF1 in NIH3T3 cells (Western blot against phosphoERK) [2] |
| --- | --- | --- |
| recombinant soluble wild-type FGF1 with N-terminal 6x His tag (from UniProt P14210 16-155) (ligand) | 10 nM | – |
| FGF1 L131R mutant, recombinant soluble, His-tagged (from UniProt P14210 16-155) (ligand) | – | 1 nM |
